Data taken from patent US20220010021A1 (Sanofi, published 2022).
Positions count from the first letter of the chain named. Values belong to the binder of their own block, whether it stands above or below them.

Tests used:
[1] = molecular target: T1, human beta-Klotho (KLB) (human, UniProt Q86Z14 53-997); assay: BLI off-rate screening (Octet), crude supernatant;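 note: supernatants tested at 25 µg/mL, dissociation from biosensors recorded in D-PBS with 0.1% BSA over 1800 s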
T1 construct: Bought protein; also called human KLB; β-Klotho
T1 sequence (looked up): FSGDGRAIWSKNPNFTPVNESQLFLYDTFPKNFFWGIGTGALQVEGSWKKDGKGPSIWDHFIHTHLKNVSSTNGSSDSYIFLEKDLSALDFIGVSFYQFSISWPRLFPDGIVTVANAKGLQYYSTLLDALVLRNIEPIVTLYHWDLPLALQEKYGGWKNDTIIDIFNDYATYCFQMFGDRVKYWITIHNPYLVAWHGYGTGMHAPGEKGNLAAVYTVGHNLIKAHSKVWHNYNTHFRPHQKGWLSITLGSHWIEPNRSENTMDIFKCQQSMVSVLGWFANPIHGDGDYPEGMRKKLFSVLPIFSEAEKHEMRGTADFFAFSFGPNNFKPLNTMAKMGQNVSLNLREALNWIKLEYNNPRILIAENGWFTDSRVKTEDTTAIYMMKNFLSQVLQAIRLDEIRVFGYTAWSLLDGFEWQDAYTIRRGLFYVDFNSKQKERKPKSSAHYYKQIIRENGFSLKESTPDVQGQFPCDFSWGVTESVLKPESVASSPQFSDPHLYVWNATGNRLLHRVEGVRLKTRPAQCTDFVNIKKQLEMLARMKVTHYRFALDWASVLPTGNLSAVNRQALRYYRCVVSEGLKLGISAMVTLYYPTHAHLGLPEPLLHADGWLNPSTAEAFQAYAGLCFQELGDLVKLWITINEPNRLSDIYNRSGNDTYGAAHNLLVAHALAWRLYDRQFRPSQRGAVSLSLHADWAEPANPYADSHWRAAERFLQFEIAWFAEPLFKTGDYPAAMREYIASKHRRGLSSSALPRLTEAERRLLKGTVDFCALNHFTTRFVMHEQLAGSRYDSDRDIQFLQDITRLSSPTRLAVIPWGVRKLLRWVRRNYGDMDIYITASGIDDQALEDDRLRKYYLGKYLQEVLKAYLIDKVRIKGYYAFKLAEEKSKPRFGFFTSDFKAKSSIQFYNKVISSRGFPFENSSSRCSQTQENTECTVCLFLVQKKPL

[2] = molecular target: cell surface receptor composed of FGFR1c and co-receptor beta-Klotho (KLB) (human, UniProt P11362 22-822; Q86Z14 1-1044); assay: cell-based or functional assay; for Mean E max, Luciferase reporter gene assay: reference of the scale not given here
Chain of cell surface receptor composed of FGFR1c and co-receptor beta-Klotho (KLB) (P11362 22-822, chain 1 of 2): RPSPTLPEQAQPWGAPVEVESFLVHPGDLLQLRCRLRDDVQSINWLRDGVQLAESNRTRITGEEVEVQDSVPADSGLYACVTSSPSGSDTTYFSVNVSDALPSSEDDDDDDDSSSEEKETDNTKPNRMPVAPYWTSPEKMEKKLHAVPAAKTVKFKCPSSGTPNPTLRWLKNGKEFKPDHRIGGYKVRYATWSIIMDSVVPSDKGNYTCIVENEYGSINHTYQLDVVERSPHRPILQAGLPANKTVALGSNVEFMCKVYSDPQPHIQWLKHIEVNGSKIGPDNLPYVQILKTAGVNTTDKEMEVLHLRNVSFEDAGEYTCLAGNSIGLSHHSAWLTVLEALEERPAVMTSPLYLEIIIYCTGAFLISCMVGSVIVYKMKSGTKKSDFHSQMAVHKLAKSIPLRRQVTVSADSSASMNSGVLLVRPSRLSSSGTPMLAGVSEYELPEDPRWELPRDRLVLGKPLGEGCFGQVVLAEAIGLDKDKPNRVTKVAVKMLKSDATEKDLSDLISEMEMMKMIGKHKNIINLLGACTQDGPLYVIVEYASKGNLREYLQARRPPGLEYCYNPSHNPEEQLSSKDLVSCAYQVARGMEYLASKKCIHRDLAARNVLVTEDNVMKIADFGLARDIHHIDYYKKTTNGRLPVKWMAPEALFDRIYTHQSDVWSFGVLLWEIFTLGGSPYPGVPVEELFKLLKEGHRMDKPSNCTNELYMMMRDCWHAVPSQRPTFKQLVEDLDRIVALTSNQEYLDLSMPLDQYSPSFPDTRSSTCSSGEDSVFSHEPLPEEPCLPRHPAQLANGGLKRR
Chain of cell surface receptor composed of FGFR1c and co-receptor beta-Klotho (KLB) (Q86Z14 whole entry, chain 2 of 2): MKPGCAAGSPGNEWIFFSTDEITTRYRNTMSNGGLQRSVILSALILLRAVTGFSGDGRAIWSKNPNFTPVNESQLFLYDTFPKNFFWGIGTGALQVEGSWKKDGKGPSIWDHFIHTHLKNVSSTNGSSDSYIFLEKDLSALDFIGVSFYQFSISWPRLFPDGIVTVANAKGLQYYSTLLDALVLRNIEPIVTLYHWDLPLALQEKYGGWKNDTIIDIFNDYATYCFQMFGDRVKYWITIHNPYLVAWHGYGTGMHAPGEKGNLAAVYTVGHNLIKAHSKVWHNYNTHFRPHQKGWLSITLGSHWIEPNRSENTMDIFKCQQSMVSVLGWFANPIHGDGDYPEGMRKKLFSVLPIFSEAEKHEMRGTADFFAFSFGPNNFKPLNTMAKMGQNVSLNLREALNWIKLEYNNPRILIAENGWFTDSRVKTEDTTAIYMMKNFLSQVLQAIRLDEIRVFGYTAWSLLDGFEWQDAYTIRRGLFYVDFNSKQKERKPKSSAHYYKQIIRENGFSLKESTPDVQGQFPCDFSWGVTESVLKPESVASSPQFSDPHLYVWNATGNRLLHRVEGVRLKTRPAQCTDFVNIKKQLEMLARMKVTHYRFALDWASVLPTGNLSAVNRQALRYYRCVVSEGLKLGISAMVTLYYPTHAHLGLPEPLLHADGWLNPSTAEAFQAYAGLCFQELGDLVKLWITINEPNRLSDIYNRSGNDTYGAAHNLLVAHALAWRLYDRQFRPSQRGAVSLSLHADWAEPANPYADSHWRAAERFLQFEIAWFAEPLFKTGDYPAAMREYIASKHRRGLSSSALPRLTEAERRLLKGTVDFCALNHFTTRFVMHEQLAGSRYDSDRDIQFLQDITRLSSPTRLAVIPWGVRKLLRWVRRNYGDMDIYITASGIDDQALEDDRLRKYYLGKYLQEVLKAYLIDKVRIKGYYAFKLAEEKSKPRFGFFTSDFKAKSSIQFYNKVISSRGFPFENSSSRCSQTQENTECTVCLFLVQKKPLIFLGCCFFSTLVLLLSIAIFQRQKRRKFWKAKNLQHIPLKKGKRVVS

B1: 16H7 light chain variant D50F (antibody, IgG4, V domains shown)
VH: not shown
VL: SYVLTQPPSVSVAPGQTARITCGGNNIGSESVHWYQQKPGQAPVLVVYDFSDRPSGIPERFSGSNSGNTATLTISRVEAGDEADYYCQVWDGNSDHVVFGGGTKLTVLG
notes: IgG4 backbone
koff [1]: 0.0001 s⁻¹ | Mean E max, Luciferase reporter gene assay [2]: 113% | Mean EC50, Luciferase reporter gene assay [2]: 0.124 nM

B2: 16H7 light chain variant D95I (antibody, IgG4, V domains shown)
VH: not shown
VL: B1 VL with F50D, D95I
notes: IgG4 backbone
koff [1]: 0.00016 s⁻¹ | Mean E max, Luciferase reporter gene assay [2]: 4%

B3: 16H7 light chain variant D50I (antibody, IgG4, V domains shown)
VH: not shown
VL: B1 VL with F50I
notes: IgG4 backbone
koff [1]: 8.2e-05 s⁻¹ | Mean E max, Luciferase reporter gene assay [2]: 109% | Mean EC50, Luciferase reporter gene assay [2]: 0.114 nM

B4: 16H7 light chain variant D50V (antibody, IgG4, V domains shown)
VH: not shown
VL: B1 VL with F50V
notes: IgG4 backbone
koff [1]: 2.2e-05 s⁻¹ | Mean E max, Luciferase reporter gene assay [2]: 105% | Mean EC50, Luciferase reporter gene assay [2]: 0.106 nM

B5: 16H7 light chain variant D50S (antibody, IgG4, V domains shown)
VH: not shown
VL: B1 VL with F50S
notes: IgG4 backbone
koff [1]: 4.1e-06 s⁻¹ | Mean E max, Luciferase reporter gene assay [2]: 100% | Mean EC50, Luciferase reporter gene assay [2]: 0.118 nM

B7: 16H7 light chain variant D95Y (antibody, IgG4, V domains shown)
VH: not shown
VL: B1 VL with F50D, D95Y
notes: IgG4 backbone
koff [1]: 0.00013 s⁻¹ | Mean E max, Luciferase reporter gene assay [2]: 4%

B8: 16H7 light chain variant D95M (antibody, IgG4, V domains shown)
VH: not shown
VL: B1 VL with F50D, D95M
notes: IgG4 backbone
koff [1]: 1.4e-05 s⁻¹ | Mean E max, Luciferase reporter gene assay [2]: 8%

B10: 16H7 light chain variant D95A (antibody, IgG4, V domains shown)
VH: not shown
VL: B1 VL with F50D, D95A
notes: IgG4 backbone
koff [1]: 0.0002 s⁻¹ | Mean E max, Luciferase reporter gene assay [2]: 12%

B11: 16H7 light chain variant D50T (antibody, IgG4, V domains shown)
VH: not shown
VL: B1 VL with F50T
notes: IgG4 backbone
koff [1]: 3.9e-05 s⁻¹ | Mean E max, Luciferase reporter gene assay [2]: 104% | Mean EC50, Luciferase reporter gene assay [2]: 0.12 nM

B13: 16H7 light chain variant D50L (antibody, IgG4, V domains shown)
VH: not shown
VL: B1 VL with F50L
notes: IgG4 backbone
koff [1]: 0.00013 s⁻¹ | Mean E max, Luciferase reporter gene assay [2]: 106% | Mean EC50, Luciferase reporter gene assay [2]: 0.095 nM

B16: 16H7 light chain variant D50M (antibody, IgG4, V domains shown)
VH: not shown
VL: B1 VL with F50M
notes: IgG4 backbone
koff [1]: 0.00013 s⁻¹ | Mean E max, Luciferase reporter gene assay [2]: 110% | Mean EC50, Luciferase reporter gene assay [2]: 0.125 nM

B19: 16H7 light chain variant D50R (antibody, IgG4, V domains shown)
VH: not shown
VL: B1 VL with F50R
notes: IgG4 backbone
koff [1]: 0.00013 s⁻¹ | Mean E max, Luciferase reporter gene assay [2]: 110% | Mean EC50, Luciferase reporter gene assay [2]: 0.122 nM

B20: 16H7 light chain variant H33A (antibody, IgG4, V domains shown)
VH: not shown
VL: B1 VL with H33A, F50D
notes: IgG4 backbone
koff [1]: 0.00013 s⁻¹ | Mean E max, Luciferase reporter gene assay [2]: 96% | Mean EC50, Luciferase reporter gene assay [2]: 0.121 nM

B21: 16H7 light chain variant D50G (antibody, IgG4, V domains shown)
VH: not shown
VL: B1 VL with F50G
notes: IgG4 backbone
koff [1]: 1.7e-05 s⁻¹ | Mean E max, Luciferase reporter gene assay [2]: 107% | Mean EC50, Luciferase reporter gene assay [2]: 0.136 nM

B22: 16H7 light chain variant D50Q (antibody, IgG4, V domains shown)
VH: not shown
VL: B1 VL with F50Q
notes: IgG4 backbone
koff [1]: 7.9e-05 s⁻¹ | Mean E max, Luciferase reporter gene assay [2]: 107% | Mean EC50, Luciferase reporter gene assay [2]: 0.171 nM

B27: 16H7 light chain variant D95H (antibody, IgG4, V domains shown)
VH: not shown
VL: B1 VL with F50D, D95H
notes: IgG4 backbone
koff [1]: 8.1e-06 s⁻¹ | Mean E max, Luciferase reporter gene assay [2]: 33% | Mean EC50, Luciferase reporter gene assay [2]: 29.7 nM

B28: 16H7 light chain variant D50H (antibody, IgG4, V domains shown)
VH: not shown
VL: B1 VL with F50H
notes: IgG4 backbone
koff [1]: 0.00019 s⁻¹ | Mean E max, Luciferase reporter gene assay [2]: 94% | Mean EC50, Luciferase reporter gene assay [2]: 0.126 nM

B29: 16H7 light chain variant D50Y (antibody, IgG4, V domains shown)
VH: not shown
VL: B1 VL with F50Y
notes: IgG4 backbone
koff [1]: 0.00016 s⁻¹ | Mean E max, Luciferase reporter gene assay [2]: 113% | Mean EC50, Luciferase reporter gene assay [2]: 0.157 nM

B31: 16H7 light chain variant D50W (antibody, IgG4, V domains shown)
VH: not shown
VL: B1 VL with F50W
notes: IgG4 backbone
koff [1]: 0.00017 s⁻¹ | Mean E max, Luciferase reporter gene assay [2]: 108% | Mean EC50, Luciferase reporter gene assay [2]: 0.145 nM

The remaining lines, values ahead:

koff [1]: 3.6e-05 s⁻¹ | Mean E max, Luciferase reporter gene assay [2]: 100% | Mean EC50, Luciferase reporter gene assay [2]: 0.121 nM
B6: 16H7 light chain variant H33E (antibody, IgG4, V domains shown)
VH: not shown
VL: B1 VL with H33E, F50D
notes: IgG4 backbone

koff [1]: 0.00011 s⁻¹ | Mean E max, Luciferase reporter gene assay [2]: 113% | Mean EC50, Luciferase reporter gene assay [2]: 0.165 nM
B9: 16H7 light chain variant H33N (antibody, IgG4, V domains shown)
VH: not shown
VL: B1 VL with H33N, F50D
notes: IgG4 backbone

koff [1]: 6.8e-05 s⁻¹ | Mean E max, Luciferase reporter gene assay [2]: 108% | Mean EC50, Luciferase reporter gene assay [2]: 0.123 nM
B12: 16H7 light chain variant H33C (antibody, IgG4, V domains shown)
VH: not shown
VL: B1 VL with H33C, F50D
notes: IgG4 backbone

koff [1]: 9.6e-05 s⁻¹ | Mean E max, Luciferase reporter gene assay [2]: 102% | Mean EC50, Luciferase reporter gene assay [2]: 0.12 nM
B14: 16H7 light chain variant H33G (antibody, IgG4, V domains shown)
VH: not shown
VL: B1 VL with H33G, F50D
notes: IgG4 backbone

koff [1]: 4.4e-05 s⁻¹ | Mean E max, Luciferase reporter gene assay [2]: 101% | Mean EC50, Luciferase reporter gene assay [2]: 0.131 nM
B15: 16H7 light chain variant H33Q (antibody, IgG4, V domains shown)
VH: not shown
VL: B1 VL with H33Q, F50D
notes: IgG4 backbone

koff [1]: 5.2e-05 s⁻¹ | Mean E max, Luciferase reporter gene assay [2]: 102% | Mean EC50, Luciferase reporter gene assay [2]: 0.107 nM
B17: 16H7 light chain variant H33M (antibody, IgG4, V domains shown)
VH: not shown
VL: B1 VL with H33M, F50D
notes: IgG4 backbone

koff [1]: 6.8e-05 s⁻¹ | Mean E max, Luciferase reporter gene assay [2]: 99% | Mean EC50, Luciferase reporter gene assay [2]: 0.166 nM
B18: 16H7 light chain variant H33D (antibody, IgG4, V domains shown)
VH: not shown
VL: B1 VL with H33D, F50D
notes: IgG4 backbone

koff [1]: 0.00014 s⁻¹ | Mean E max, Luciferase reporter gene assay [2]: 99% | Mean EC50, Luciferase reporter gene assay [2]: 0.114 nM
B23: 16H7 light chain variant H33T (antibody, IgG4, V domains shown)
VH: not shown
VL: B1 VL with H33T, F50D
notes: IgG4 backbone

koff [1]: 5.5e-05 s⁻¹ | Mean E max, Luciferase reporter gene assay [2]: 114% | Mean EC50, Luciferase reporter gene assay [2]: 0.115 nM
B24: 16H7 light chain variant H33L (antibody, IgG4, V domains shown)
VH: not shown
VL: B1 VL with H33L, F50D
notes: IgG4 backbone

koff [1]: 9.7e-05 s⁻¹ | Mean E max, Luciferase reporter gene assay [2]: 104% | Mean EC50, Luciferase reporter gene assay [2]: 0.121 nM
B25: 16H7 light chain variant H33I (antibody, IgG4, V domains shown)
VH: not shown
VL: B1 VL with H33I, F50D
notes: IgG4 backbone

koff [1]: 4.6e-06 s⁻¹ | Mean E max, Luciferase reporter gene assay [2]: 103%
B26: 16H7 light chain variant H33S (antibody, IgG4, V domains shown)
VH: not shown
VL: B1 VL with H33S, F50D
notes: IgG4 backbone

koff [1]: 0.0001 s⁻¹ | Mean E max, Luciferase reporter gene assay [2]: 113% | Mean EC50, Luciferase reporter gene assay [2]: 0.122 nM
B30: 16H7 light chain variant H33F (antibody, IgG4, V domains shown)
VH: not shown
VL: B1 VL with H33F, F50D
notes: IgG4 backbone
